Test: soluble on expression in E. coli; label from the status in PepcDB or PDB records

Row | Sequence | soluble on expression in E. coli
1 | MKTFFIVASLLAVGLVLAEDSEEKSEVKDVKPWKKLDFKKREPEFLKEMSQDAKTAYFGIKFNPELTKAEKTRMLKEWADQYDVEDDMQKFLDAKKADCDKKKQERKDNYERLGDLIEKADEILDDQENTWNGANEKLEALVKDENRDVMKAFQSFYPFVGRDSEGPRHGHGHGHGHRFHHGRRFGRNIGGGAAPRYNGGGIGSGISIGENPRHHNGGIGSGISMGERHRDGESYDAYGNSKHHHKKHHGF | not soluble
2 | MKTFIWNSNYETGVAKVDDQHQCLVEIINEYSHLLANNTTTETDIELTLNKLIDYTKFHFKDEEQLMYSVGLDTRHITHHEKLHRDILDEISTLLSDQVTDKLSIARYILDLIIHWLVYHILGTDMNMAKLEHHHHHH | not soluble
3 | MKTGKELKPGTVIRLENDPWLVQKAEFTKSGRNSAIMKTKLKNLLTGYKTEIVYSADDKLDDVILDRKEATLSFISGDTYTFMDTTDYTMYELNAEDIESVLPFVEEGMTDVCEAVFFDERLVSVELPTTIVRQVDYTEGSARGDTSGKVMKPAKLKNGTELSVADFIEIGDMIEIDTREGGSYKGRAKLEHHHHHH | not soluble
4 | MKTHYRTIVLSDIHLGTSSSKAKEVSNFLKNHTCDTLLLNGDIIDGWQLQKYGKWKKSHTRFFRRVIKMTEQNKTKVYYLRGNHDDFLDTILPLSFGNIHIDREYIHQGATGKMYYVVHGDVFDTVTSQLKWIAKLGDVGYTFLLWLNKHYNNYRVKRGLPYYSLSQAVKQKVKTAVSYISDFEMQLADLARSRKCDGVICGHIHQPAIKEYNGIEYLNSGDWVETLSALVETIHGEWKLIYYNQAFDEDRDSTEDADDPLFVFENMARFSKDVTIYKPRYSAFNGMNPADNLATNNQ | not soluble
5 | MKTLLTSATLLVTTLSTPLMAKEADIQSLVNAAQKEGQVYSVGMPGSWANWKDTWNDLNKLYGLKHQDTDMSSAQEIAKFAAEKNNATADIGDIGFAFARVAVKKGVTQAYKPTTWDSIPDWAKDKDGHWALAYTGTISFISNNKLVKNPPTSWDDLLEGNYKVSVGDVGVAAQANNAVLAAAFAKGGDESNLKPAIKFFAELAKQGRLSYTDPGLANLEKGEVEVALLWDFNALNYRDKLGRDRFSVNIPQDGSVISGYTTIINKFAKNPNSAKLAREYIFSDQGQINLAEGYARPIRSDVVLPQSIQDKLIPNDQYTNVQPVSDFKAWEKSARKLPRQWQENVLINQQ | not soluble
6 | MKTLNLLAPVSQLLKPLRRQSSSRVNALLINVPRVQLSKGKNKYLLMMIHMHGLTRFGRTIVRGSASKDHEEIFEEIQKEMDKIGICAKCLGGGFISNKEDKKVMKIYGCCKTFGEAPHGRTKDILLSWTKFQHYNIILPKKNLNAYQLEHHHHHH | not soluble
7 | MKTNSEELTVFVQVVESGSFSRAAEQLAMANSAVSRIVKRLEEKLGVNLLNRTTRQLSLTEEGAQYFRRAQRILQEMAAAETEMLAVHEIPQGVLSVDSAMPMVLHLLAPLAAKFNERYPHIRLSLVSSEGYINLIERKVDIALRAGELDDSGLRARHLFDSRFRVIASPEYLAKHGTPQSTEELAGHQCLGFTEPGSLNTWAVLDAQGNPYKISPHFTASSGEILRSLCLSGCGIVCLSDFLVDNDIAEGKLIPLLAEQTSDKTHPFNAVYYSDKAVNLRLRVFLDFLVEELGNNLCGKHHHHHH | soluble
8 | MKTPAILLLLFLFMMSLAQSDEEQSGKEPPEKDDVLVILAEDNSTLLNNNQTMYDPSSEEKESDKPKFNLLETYLPLFIFVLDLPTEDRETLKAYVKDKTYEKLKYVIDSKVKMNRNEKNVLGRINESLVQSIDNLEHFDEITVDVVNGYHNASVYNAIRSVWLKQLRPFLPLIDQMAIQQKSSETEKMSIWARLWENLSVWMYGKKKLNECYAMEPKCVRHALELLNFEQRIDLDLAAYENKFDSVDGIIRERLGENRKSSELDEWLHRNRPPKALQAILDERSDIEEEALQRLRDNGVLSSLKHYYKAVIESRSHEEQEDIRHFFDIMNDTFARCFDPLRGQYHDF | not soluble
9 | MKTPTRVSFEKKIHTPPSGDRDAERSPPKKFLRGLSGKVFRKTPEFKKQQMPTFGYIEESQFTPNLGLMMSKRGNIPKPLNLSKPISPPPSLKKTAGSVASGFSKTGQLSALQSPVNITSSNKYNIKATNLTTSLLRESISDSTTMCDTLSDINLTVMDEDYRIDGDSYYEEDSPTFMISLERNIKKCNSQFSPKRYIGEKCLICEESISSTFTGEKVVESTCSHTSHYNCYLMLFETLYFQGKFPECKICGEVSKPKDKDIVPEMVSKLLTGAGAHDDGPSSNMQQQWIDLKTARSFTGEFPQFTPQEQLIRTADISCDGFRTPRLSNSNQFEAVSYLDSPFLNSPFVNKMATTDPFDLSDDEKLDCDDEIDESAAEVWFSKTGGEHVMVSVKFQEMRTSDDLGVLQDVNHVDHEELEEREKEWKKKIDQYIETNVDKDSEFGSLILFDKLMYSDDGEQWVDNNLVILFSKFLVLFDFEEMKILGKIPRDQFYQVIKFNEDVLLCSLKSTNIPEIYLRFNENCEKWLLPKWKYCLENSSLETLPLSEIVSTVKELSHVNIIGALGAPPDVISAQSHDSRLPWKRLHSDTPLKLIVCLNLSHADGELYRKRVLKSVHQILDGLNTDDLLGIVVVGRDGSGVVGPFGTFIGMINKNWDGWTTFLDNLEVVNPNVFRDEKQQYKVTLQTCERLASTSAYVDTDDHIATGYAKQILVLNGSDVVDIEHDQKLKKAFDQLSYHWRYEISQRRMTPLNASIKQFLEELHTKRYLDVTLRLPQATFEQVYLGDMAAGEQKTRLIMDEHPHSSLIEIEYFDLVKQQRIHQTLEVPNL | not soluble
10 | MKTSSYLLKAGVDYPTNWDEFVDWFHDEQSCTSYLYALRWPNGFICPSCSSHQSPYQLSNGKLKCHACRFQCSVTSSTLFDKTRTPMKSWFAAVWFITNQKNGVSALGVQRLLGLGSYQTAWSLMHKLRYAMVDPERDKLSGIVEVDETLIGGVIPKSSIKNQQGKRKAIVLVAVELLSPSGFGRIRLRQVESATKEHIHQFIQDVIEPGSTICSDGSQAYKQIDKKGYKHNRMVHLGSSVPAHETMAGVHRVSSLCKRWLLGTYQGAVKAKQLDYYLDEFTFRFNRRKSDSRGLLFYRLLEQAVRLEHHHHHH | soluble
11 | MKTTDLFSTLENNILRNSLDSTTKDKLLSNLSLLRKASLNILITGSTGSGKSSTINALFDMTVAQVGIDSDPHTESVQCYHLNNLVLWDTPGLGDGIDEDKKHVQAIKQLLNKRDDHGQLAIDLVLVILDGGSRDLGTPLRLINDIVIPQLGDDAEKRLIVAVNQADVALKGPESWNYSDNLPTDKAKAFLEKQQNSIARRIHKATQINVKTLYFVAGYSDGVNRQRPYNLSKLLYTIVEILPNNKRVMLANRTISNDADNWKDNDASDYNKKTTLSLWEAIVETTLQGASIGSDIGSIFGKPGEILGKVVGSVAGLFFGGLRYTFGFLEHHHHHH | soluble
12 | MKTVTEFQNKNILVLGIAKSGYAAATLLQKLGANVIVNDGKPLAENVLAAELQAKGMDVVCGGHPLELLERNISLVVKNPGIPYSNPILVAAKEKQIPIVTEVELAYRISEAPFVGITGSNGKTTTTMLTFEMLKEGQKHPVIAGNIGTVACEVAQDAKENEVVVTELSSFQLMGVELFQPKIAAFLNLFEAHLDYHGTKKEYGLAKANIFKNQTENDYSVINADDADVMALSAYSKGQKVLFSTTKEIEDGACIKDNALYFKAEKVVEVDDIVLPGQHNLENILAAMSIAKLLGVSNEAITAVLKRFTGVKHRLEYVTTINNRKFYNDSKATNMLATEKALSAFTQPTVLLAGGLDRGNEFDDLIPYFKNVKAIVTFGQTAPKLVRAAEKAGLDTIESVDTLDEAVVKAYAHSTDGDVILLSPACASWDQFKTFEERGDIFIQAVHKLI | not soluble
13 | MKVAEIIVVEGKDDTRRIQEVVAADTIETIGSAINDEILTQIEHAQETRGVIIFTDPDYSGEKIRKTIMEVVPDAKHAFLSRKVAVPKKNGGSLGVEHASDEAIIEALKKVVTPVQADEDYQEIPRQTLVEYGLIAGANAKKYRELLGDDLRIGYTNSKQLVKRLSMFRITEAELKESMTRILKELANEE | not soluble
14 | MKVEIGKIVNTHGIKGEIKVKSNSDFTETRFQPGELVIIERKNKEPLEFTIASYRMHKGLHMLTFEGINNINDIEYLKGETIMQERDHEEIELGEHEFYYSDIIGCTVFDDDDTPIGRVTEIFETGANDVWVVKGDKEYLIPYIADVVKDIDVEGRRIQITPMEGLLDLEHHHHHH | soluble
15 | MKVEKFKVLLYLKKSGLDKNGKAPIMGRITLNRTMAQFGCKLSCTPKLWNPRESRLDGKSKEAVEVNAKIDKLLLAINSAYESLVERKTDFDAKAIKDLFQCSADTQMTLLKQLDAIIADIESRIGIDYKKGTLPNYQYTRLTLGLFVKKRYGTDDVAFGELDEQFIREYMDFCLDERGLALDTVRHYLAILKKTCRIAFKAGHSERYHFMHFKLPQKKENPPKALTREDFLKIRDLEIPERRKSLALTRDLFLFACYTGTAYADTVSITEENLFRDEEGSLWLKYHRKKNKMLARVKLLPEALAMLEKYKDPTRPTLLPPQEFRVLRGNM | not soluble
16 | MKVLDLIDKYYPQDNELKHILNVHSRSVADKALWIAGKHPELNLDTVFLEEAAMLHDIGIFLTHAPGIQCFGTEPYICHGYLGAGLVRKEGFPRHALVCERHTGAGLSLKDIMDQKLPVPHREMLPVSMEEQVICFADKFFSKTHLDREKTVEGARKSIAKYGDEGLQRFNNWCKLFL | not soluble
17 | MKVLILGGGYTGQRLAQLLAAQSIPVLATTRSGQWPLDEPCVTFDAGSTPLLLPDPAALAGVTHVLSTIPPLGDGGDPVLSTLLPTLQYLSLQWCGYLSTTGVYGDTQGAWVDEDSPLQSTNRRSQQRIAIEAQWLASGLPAHIFRLPGIYGPGRSSFDRLRRGDNQRLLKPGHVFCRIHVDDIAAALWASLQQPNPGRIYNVSDDFPCEPALLIEAAAQLMGVELPPPLPVDAVELSPMAASFWSECRRVRNDRLKQELGVQLRYPSYREGLAAIWAAELEHHHHHH | not soluble
18 | MKVLLINGSPHAKGCTYTALSEVAKALEEENIETEIFQIGTKPVRGCIGCGTCSKTGSGKCVFDDDTLNAGLEKAKTADGFIFGSPVHYAAASGALTSFLDRFFYAGKDFAYKPGAAIVSCRRGGAAAAFDQLNKYFTIANMPIVSSQYWNMVHGNTPEEVKQDLEGMQTMRTLGKNMAWLLKSIQAGKEAGVKLPEKEQTIRTNFIRLEHHHHHH | soluble
19 | MKVNDRVTVKTDGGPRRPGVVLAVEEFSEGTMYLVSLEDYPLGIWFFNEAGHQDGIFVEKAE | soluble
20 | MKWNLDPSHTSIDFKVRHMGIASVRGSLKVLSGSVETDEAGRPIQVEAVIDAASIATGEPQRDGHLRSADFLHAEQYPEIRFVSTQIEPLGGNRYRIQGNLTIRDITKPVTLEAEVSAPIKDPWGMQRVAASASGQINRKDWNLTWNQVLELGALLVGEEVKFNLEVEAVAPAPVAAQ | soluble
21 | MKYDLKYLSVPLPEEIQRVKEFGDFASADIAIDFWLTKELPQALKERLIIEKDVIKMMRMNEYPHSFAKADQMMRDTFQDYQTEELIRLKETGLVDWVYIDGEPYFQLRFLANLIKTNAAYVARLREAESNQLEILRKKELKENIEQMQKNGGRKVRTTIKATIQVKKEFERPGERVRVHLPLPKACQQQSEIEILATSPEATYIAAEDAPQRTLCFETILKENQTFTVEYCYVNRMVYQQLEENNVDKMQPSFDLEEQLPHIRFTPYLRNLADEIVGDESNPLKKARLIYDFVTTKIHYSFMREYFTISNISEYAATNLKGDCGVQAILFITLCRIAGIPAKWQSGLYVSTHYTGCHDWAQFYIKPYGWLFADLSFGGGAYRDGDRQRWNHYFGNLDVFRMVANSEIQADFQPAKMQLRADPIDNQRGEFEYENEGLPYACLIVSQERLSMEELPFD | not soluble
